Measurements published in article PMC9482650, “Quantitative fragmentomics allow affinity mapping of interactomes” (Nature Communications, 2022).

Assays:
Assay in all cases: holdup assay
Set-up in all cases: key: below the threshold = too weak to quantify, mostly under pKd 3.1 to 4
Details in all cases: plain residues with an end cap or a label only (N-terminal biotin on a linker: ado-ado)
APBA2_2, Q99767 = biological target: T1, APBA2_2, Q99767
T1 sequence (Q99767 654-744, limits assumed, looked up): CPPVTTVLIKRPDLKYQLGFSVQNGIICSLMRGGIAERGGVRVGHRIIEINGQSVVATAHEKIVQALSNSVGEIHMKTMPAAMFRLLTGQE

CARD11, Q9BXL7 = biological target: T2, CARD11, Q9BXL7
T2 sequence (Q9BXL7 662-765, limits assumed, looked up): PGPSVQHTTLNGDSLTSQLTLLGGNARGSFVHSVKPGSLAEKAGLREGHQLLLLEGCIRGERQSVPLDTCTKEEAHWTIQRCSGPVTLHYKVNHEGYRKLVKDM

CASK, O14936 = biological target: CASK, O14936
CASK, O14936, sequence (O14936 487-570): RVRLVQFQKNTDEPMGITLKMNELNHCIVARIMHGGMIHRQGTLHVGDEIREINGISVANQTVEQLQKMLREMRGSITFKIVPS

DFNB31_2, Q9P202 = biological target: T3, DFNB31_2, Q9P202
T3 sequence (Q9P202 274-371, limits assumed, looked up): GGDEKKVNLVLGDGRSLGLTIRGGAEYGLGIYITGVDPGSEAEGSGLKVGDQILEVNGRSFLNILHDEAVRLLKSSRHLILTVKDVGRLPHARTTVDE

DLG3_2, Q92796 = biological target: T4, DLG3_2, Q92796
T4 sequence (Q92796 221-321, limits assumed, looked up): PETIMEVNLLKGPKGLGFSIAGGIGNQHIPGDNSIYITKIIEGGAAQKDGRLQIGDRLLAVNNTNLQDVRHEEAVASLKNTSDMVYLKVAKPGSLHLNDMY

DLG3_3, Q92796 = biological target: T5, DLG3_3, Q92796
T5 sequence (Q92796 374-475, limits assumed, looked up): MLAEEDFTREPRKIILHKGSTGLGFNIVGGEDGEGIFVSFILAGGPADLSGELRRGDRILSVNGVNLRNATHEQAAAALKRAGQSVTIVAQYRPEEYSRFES

DLG4_1, P78352 = biological target: DLG4_1, P78352
DLG4_1, P78352, sequence (P78352 62-152): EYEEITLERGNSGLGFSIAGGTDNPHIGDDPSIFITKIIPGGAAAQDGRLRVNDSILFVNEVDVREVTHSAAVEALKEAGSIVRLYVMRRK

FRMPD2_3, Q68DX3 = biological target: FRMPD2_3, Q68DX3
FRMPD2_3, Q68DX3, sequence (Q68DX3 1073-1166): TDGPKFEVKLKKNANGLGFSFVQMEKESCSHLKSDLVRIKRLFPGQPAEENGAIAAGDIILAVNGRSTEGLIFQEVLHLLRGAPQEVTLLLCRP

GRIP2_3, Q9C0E4 = biological target: GRIP2_3, Q9C0E4
GRIP2_3, Q9C0E4, sequence (Q9C0E4 238-339): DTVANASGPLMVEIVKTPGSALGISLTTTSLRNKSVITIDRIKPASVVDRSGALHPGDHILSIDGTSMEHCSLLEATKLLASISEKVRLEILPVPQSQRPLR

GRIP2_4, Q9C0E4 = biological target: GRIP2_4, Q9C0E4
GRIP2_4, Q9C0E4, sequence (Q9C0E4 446-548): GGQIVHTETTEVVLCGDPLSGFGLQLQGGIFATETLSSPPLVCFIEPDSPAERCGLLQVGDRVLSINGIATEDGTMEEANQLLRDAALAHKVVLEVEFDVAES

GRIP2_5, Q9C0E4 = biological target: GRIP2_5, Q9C0E4
GRIP2_5, Q9C0E4, sequence (Q9C0E4 544-642): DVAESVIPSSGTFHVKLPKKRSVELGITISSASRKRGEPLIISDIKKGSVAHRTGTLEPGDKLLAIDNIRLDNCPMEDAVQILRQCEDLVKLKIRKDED

GRIP2_6, Q9C0E4 = biological target: GRIP2_6, Q9C0E4
GRIP2_6, Q9C0E4, sequence (Q9C0E4 648-740): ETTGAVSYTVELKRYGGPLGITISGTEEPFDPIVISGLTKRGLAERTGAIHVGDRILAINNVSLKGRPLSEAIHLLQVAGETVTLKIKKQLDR

IL16_3, Q14005 = biological target: IL16_3, Q14005
IL16_3, Q14005, sequence (Q14005 1107-1207): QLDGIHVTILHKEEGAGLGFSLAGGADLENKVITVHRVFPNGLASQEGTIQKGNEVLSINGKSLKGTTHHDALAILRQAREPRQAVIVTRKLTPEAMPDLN

Inadl_1, Q8NI35 = biological target: Inadl_1, Q8NI35
Inadl_1, Q8NI35, sequence (Q8NI35 113-229): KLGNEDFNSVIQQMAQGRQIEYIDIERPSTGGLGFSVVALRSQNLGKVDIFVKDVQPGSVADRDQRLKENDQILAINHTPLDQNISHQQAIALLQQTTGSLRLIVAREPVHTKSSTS

Inadl_8, Q8NI35 = biological target: Inadl_8, Q8NI35
Inadl_8, Q8NI35, sequence (Q8NI35 1425-1530): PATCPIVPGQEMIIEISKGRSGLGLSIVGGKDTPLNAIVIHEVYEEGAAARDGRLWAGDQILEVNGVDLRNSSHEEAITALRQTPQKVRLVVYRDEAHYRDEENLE

LDB3, O75112 = biological target: LDB3, O75112
LDB3, O75112, sequence (O75112 1-94): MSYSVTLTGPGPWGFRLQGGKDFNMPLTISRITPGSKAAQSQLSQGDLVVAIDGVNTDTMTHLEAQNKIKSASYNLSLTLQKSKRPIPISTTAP

LIMK2, P53671 = biological target: LIMK2, P53671
LIMK2, P53671, sequence (P53671 143-248): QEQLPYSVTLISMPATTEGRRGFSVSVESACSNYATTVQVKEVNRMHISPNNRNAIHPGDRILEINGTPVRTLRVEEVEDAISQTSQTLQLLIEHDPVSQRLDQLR

LNX2_2, Q8N448 = biological target: T6, LNX2_2, Q8N448
T6 sequence (Q8N448 334-432, limits assumed, looked up): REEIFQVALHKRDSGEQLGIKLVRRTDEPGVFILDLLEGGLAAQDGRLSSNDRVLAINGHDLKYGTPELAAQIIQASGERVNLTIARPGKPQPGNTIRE

MAGI2_4, Q86UL8 = biological target: MAGI2_4, Q86UL8
MAGI2_4, Q86UL8, sequence (Q86UL8 772-865): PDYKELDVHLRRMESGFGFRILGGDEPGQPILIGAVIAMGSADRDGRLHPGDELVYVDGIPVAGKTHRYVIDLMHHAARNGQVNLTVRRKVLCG

MAGI2_6, Q86UL8 = biological target: MAGI2_6, Q86UL8
MAGI2_6, Q86UL8, sequence (Q86UL8 1141-1229): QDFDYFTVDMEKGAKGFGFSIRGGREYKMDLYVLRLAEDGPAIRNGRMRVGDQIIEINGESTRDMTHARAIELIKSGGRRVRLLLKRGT

MAGI3_2, Q5TCQ9 = biological target: MAGI3_2, Q5TCQ9
MAGI3_2, Q5TCQ9, sequence (Q5TCQ9 398-503): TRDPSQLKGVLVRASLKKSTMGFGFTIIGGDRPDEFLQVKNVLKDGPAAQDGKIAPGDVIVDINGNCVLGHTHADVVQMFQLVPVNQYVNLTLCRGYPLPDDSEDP

MPDZ_12, O75970 = biological target: T7, MPDZ_12, O75970
T7 sequence (O75970 1857-1958, limits assumed, looked up): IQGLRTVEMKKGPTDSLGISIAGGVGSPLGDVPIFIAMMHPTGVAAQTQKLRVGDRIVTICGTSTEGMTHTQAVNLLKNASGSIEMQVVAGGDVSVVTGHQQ

MPP2, Q14168 = biological target: T8, MPP2, Q14168
T8 sequence (Q14168 180-250, limits assumed, looked up): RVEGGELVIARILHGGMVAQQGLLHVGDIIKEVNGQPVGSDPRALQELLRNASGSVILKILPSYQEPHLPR

PDZD7_3, Q9H5P4 = biological target: T9, PDZD7_3, Q9H5P4
T9 sequence (Q9H5P4 857-944, limits assumed, looked up): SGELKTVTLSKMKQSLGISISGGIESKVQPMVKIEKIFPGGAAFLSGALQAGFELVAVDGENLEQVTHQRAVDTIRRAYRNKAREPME

PTPN3, P26045 = biological target: PTPN3, P26045
PTPN3, P26045, sequence (P26045 505-587): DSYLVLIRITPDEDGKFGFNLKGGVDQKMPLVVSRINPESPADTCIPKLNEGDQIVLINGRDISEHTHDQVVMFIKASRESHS

SHANK1, Q9Y566 = biological target: T10, SHANK1, Q9Y566
T10 sequence (Q9Y566 658-767, limits assumed, looked up): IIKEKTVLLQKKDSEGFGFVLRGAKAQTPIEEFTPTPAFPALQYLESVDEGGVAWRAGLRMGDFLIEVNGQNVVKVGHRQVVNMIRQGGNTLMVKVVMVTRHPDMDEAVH

TJP1_3, Q07157 = biological target: TJP1_3, Q07157
TJP1_3, Q07157, sequence (Q07157 416-512): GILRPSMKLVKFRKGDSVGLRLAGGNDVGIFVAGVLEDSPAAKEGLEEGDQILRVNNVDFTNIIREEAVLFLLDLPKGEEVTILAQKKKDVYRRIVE

TJP3_3, O95049 = biological target: T11, TJP3_3, O95049
T11 sequence (O95049 375-456, limits assumed, looked up): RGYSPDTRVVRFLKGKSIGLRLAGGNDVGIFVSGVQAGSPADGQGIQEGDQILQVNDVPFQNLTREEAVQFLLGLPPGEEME

Measured: pKd

TSSMRGMDAV [RSRC2, Q7L4I2]
3.67: PTPN3, P26045
3.49: DLG4_1, P78352
below the threshold: all other assays above

TACCHSETVV [TGFA, P01135]
3.85: DLG3_3, Q92796
4.4: MAGI2_4, Q86UL8
3.72: Inadl_8, Q8NI35
4.41: PTPN3, P26045
5.21: LNX2_2, Q8N448
3.56: FRMPD2_3, Q68DX3
5.04: PDZD7_3, Q9H5P4
5.27: MAGI3_2, Q5TCQ9
4.75: DLG4_1, P78352
4.74: DLG3_2, Q92796
3.81: MAGI2_6, Q86UL8
below the threshold: all other assays above

TLPRKRMSSI [GPRC6A, Q5T6X5]
4.11: PTPN3, P26045
4.15: MAGI3_2, Q5TCQ9
3.77: Inadl_8, Q8NI35
4.23: DLG3_2, Q92796
below the threshold: all other assays above

HSGYRLNDYV [CLDN14, O95500]
3.87: Inadl_8, Q8NI35
4.12: MAGI2_6, Q86UL8
4.28: TJP3_3, O95049
4.56: LNX2_2, Q8N448
3.94: MAGI2_4, Q86UL8
4.19: PDZD7_3, Q9H5P4
below the threshold: all other assays above
